Test results taken from paper PMC8376106, “NAD^+ pool depletion as a signal for the Rex regulon involved in Streptococcus agalactiae virulence” (PLoS Pathogens, 2021).
Read-outs that look alike come from different tables or passages of the source.

Key:
GBS Rex (Gbs1167) = target: T1, GBS Rex (Gbs1167) (Streptococcus agalactiae, UniProt Q8E565); assay: isothermal titration calorimetry, one-site fit; type: binding
T1 construct: native Rex from pET101-Strex in E. coli TUNER (DE3), no tag used in purification; apo form eluted from 5' AMP-Sepharose; homodimer
Source text: isothermal titration calorimetry, one-site fit on GBS Rex (Gbs1167)

Rex (Gbs1167) [1] = target: T2, Rex (Gbs1167) (Streptococcus agalactiae NEM316, UniProt Q8E565 1-212); assay: ITC; settings: NAD+; EMSA: 20 mM Tris pH 8.0, 1 mM EDTA, 75 mM KCl, 1 mM DTT, 10 ug/ml BSA, 10% glycerol, 30 C, 20 min, 30 nM DNA (promoter fragments). ITC: 100 mM potassium …
T2 sequence: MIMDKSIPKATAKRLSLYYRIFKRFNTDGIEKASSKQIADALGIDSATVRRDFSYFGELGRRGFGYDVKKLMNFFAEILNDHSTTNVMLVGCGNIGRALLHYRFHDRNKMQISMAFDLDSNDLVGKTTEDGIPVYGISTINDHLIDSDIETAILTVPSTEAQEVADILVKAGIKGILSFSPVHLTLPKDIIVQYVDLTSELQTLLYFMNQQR

Rex (Gbs1167) [2] = target: T2, Rex (Gbs1167); assay: ITC and EMSA; settings: apo Rex in ITC; n = 2.2 +/- 0.2 (one dimer per DNA); EMSA: 20 mM Tris pH 8.0, 1 mM EDTA, 75 mM KCl, 1 mM DTT, 10 ug/ml BSA, 10% glycerol, 30 C, 20 min, 30 nM DNA (promoter fragments). ITC: 100 mM potassium …
Rex (Gbs1167) [3] = target: T2, Rex (Gbs1167); assay: EMSA; same as native ldh operator; EMSA: 20 mM Tris pH 8.0, 1 mM EDTA, 75 mM KCl, 1 mM DTT, 10 ug/ml BSA, 10% glycerol, 30 C, 20 min, 30 nM DNA (promoter fragments). ITC: 100 mM potassium phosphate pH 7.5, 25 C. Crystals: 25% PEG 1500, MIB buffer pH 5.0, 20 C.; settings: protein: recombinant; tags: none (native, pET101-Strex); chain copies: 2; label: 32P; (only forward strand given)
Rex (Gbs1167) [4] = target: T2, Rex (Gbs1167); assay: EMSA; EMSA: 20 mM Tris pH 8.0, 1 mM EDTA, 75 mM KCl, 1 mM DTT, 10 ug/ml BSA, 10% glycerol, 30 C, 20 min, 30 nM DNA (promoter fragments). ITC: 100 mM potassium phosphate pH 7.5, 25 C. Crystals: 25% PEG 1500, MIB buffer pH 5.0, 20 C.; settings: protein: recombinant; tags: none (native, pET101-Strex); chain copies: 2; label: 32P; (only forward strand given)
Rex (Gbs1167) [5] = target: T2, Rex (Gbs1167); assay: X-ray crystallography (2.4 A); NAD+; Mg2+ ion located; EMSA: 20 mM Tris pH 8.0, 1 mM EDTA, 75 mM KCl, 1 mM DTT, 10 ug/ml BSA, 10% glycerol, 30 C, 20 min, 30 nM DNA (promoter fragments). ITC: 100 mM potassium phosphate pH 7.5, 25 C. Crystals: 25% PEG 1500, MIB buffer pH 5.0, 20 C.; settings: protein: recombinant; tags: none (native, pET101-Strex); chain copies: 2; blunt; self-complementary, 2 strand copies
crystal structure = target: the molecule itself; assay: crystal structure

Work on `Nc1ncnc2c1ncn2[C@@H]1O[C@H](COP(=O)(O)OP(=O)(O)OP(=O)(O)O)[C@@H](O)[C@H]1O` [ATP] yielded a Kd (GBS Rex (Gbs1167); read-out: Ka (M^-1)^a x 10^-6 (converted)) of 250 µM.

Work on `NC(=O)C1=CN([C@@H]2O[C@H](COP(=O)(O)OP(=O)(O)OC[C@H]3O[C@@H](n4cnc5c(N)ncnc54)[C@H](O)[C@@H]3O)[C@@H](O)[C@H]2O)C=CC1` [NADH] yielded a Kd (GBS Rex (Gbs1167)) of 0.357 µM.

With `NC(=O)C1=CN([C@@H]2O[C@H](COP(=O)(O)OP(=O)(O)OC[C@H]3O[C@@H](n4cnc5c(N)ncnc54)[C@H](OP(=O)(O)O)[C@@H]3O)[C@@H](O)[C@H]2O)C=CC1` [NADPH] the Kd (GBS Rex (Gbs1167)) was 143 µM.

With `NC(=O)c1ccc[n+]([C@@H]2O[C@H](COP(=O)(O)OP(=O)(O)OC[C@H]3O[C@@H](n4cnc5c(N)ncnc54)[C@H](O)[C@@H]3O)[C@@H](O)[C@H]2O)c1` [NAD^+] the Kd (GBS Rex (Gbs1167)) was 76.9 µM.

In the case of “ROP-DNA used in ITC (sequence not specified)”, the binding signal (fold affinity vs apo Rex) (Rex (Gbs1167) [1]) is reported as 1.35 and the Kd (Rex (Gbs1167) [2]) is reported as 0.03 µM.

B1: ldh_m3 (C9T, A10G) (dsDNA)
DNA 1: TTTGTTTGTGAATTTTTTCACATTTTAT
DNA 2: ATAAAATGTGAAAAAATTCACAAACAAA
B1: binds (Rex (Gbs1167) [3]).

B2: ldh operator 28 bp (dsDNA)
DNA 1: TTTGTTTGCAAATTTTTTCACATTTTAT
DNA 2: ATAAAATGTGAAAAAATTTGCAAACAAA
B2: binds (Rex (Gbs1167) [4]).

B3: ROP 22-mer palindrome (dsDNA)
DNA 1: AATTGTGAAATATTTCACAATT
DNA 2: AATTGTGAAATATTTCACAATT
B3: binds (Rex (Gbs1167) [5]).

B4: ldh_m2 (C19T, C21T) (dsDNA)
DNA 1: TTTGTTTGCAAATTTTTTTATATTTTAT
DNA 2: ATAAAATATAAAAAAATTTGCAAACAAA
B4: no binding (Rex (Gbs1167) [4]).

B5: Streptococcus agalactiae (GBS) strain NEM316 redox-sensing transcriptional repressor Rex (Gbs1167) (natural protein, Streptococcus agalactiae strain NEM316)
chain: T2 sequence
notes: also called GBS Rex; native Rex; source: E. coli TUNER (DE3), pET101-Strex, purified (Q-Sepharose, Superdex 75, 5' AMP-Sepharose 4B)
B5 was tested, and the “stoichiometry N” value (crystal structure) was 2.
